These results are taken from patent US20070031511A1, “Method of treatment” (priority 2003, published 2007).

The assay concerns the target Ggly receptor on IMGE-5 cells. Nature of the assay: cell-based or functional assay.

For the substance pentapeptide E5, the ED50 (nM), proliferation of IMGE cells, thymidine uptake was 1.4 nM.
